B1: MMP1 (parent)
chain: MFFKDRFYMRTNPFYPEVELNFIS

Variants of: B1
Assay: protein stability index of a GFP-peptide fusion (GPS, HEK-293T) (PSI 1-6); higher = more stable
Details: c terminus: a fixed tail appended
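Further: lentivirally expressed fusions sorted by FACS into six bins by GFP to DsRed ratio, PSI derived from sequencing read proportions per bin multiplied by bin number.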

Row | Variant | protein stability index
1 | MFFKDRFYMRLNPFYPEVELNFIS [T11L] | 2.72
2 | MFFKDRFYMRSNPFYPEVELNFIS [T11S] | 2.32
3 | MFFKDRFYMRPNPFYPEVELNFIS [T11P] | 3.77
4 | MFFKDRFYMRRNPFYPEVELNFIS [T11R] | 2.28
5 | MFFKDRFYMRQNPFYPEVELNFIS [T11Q] | 2.59
6 | MFFKDRFYMRKNPFYPEVELNFIS [T11K] | 3.17
7 | MFFKDRFYMRINPFYPEVELNFIS [T11I] | 1.63
8 | MFFKDRFYMRNNPFYPEVELNFIS [T11N] | 2.96
9 | MFFKDRFYMRTNPFYPEVEWNFIS [L20W] | 3.09
10 | MFFKDRFYMRTNPFYPEVEKNFIS [L20K] | 3.34
11 | MFFKDRFYMRTNPFYPEVEGNFIS [L20G] | 1.59
12 | MFFKDRFYMRTNPFYPEVEHNFIS [L20H] | 2.98
13 | MFFKDRFYMRTNPFYPEVESNFIS [L20S] | 2.35
14 | MFFKDRFYMRTNPFYPEVEDNFIS [L20D] | 2.28
15 | MFFKDRFYMRTNPFYPEVEQNFIS [L20Q] | 1.36
16 | MFFKDRFYMRTNPFYPEVEINFIS [L20I] | 3.27
17 | MFFKDRFYMRTNPFYPEVERNFIS [L20R] | 2.25
18 | MFFKDRFYMRTNPFYPEVENNFIS [L20N] | 2.06
19 | MFFKDRFYMRTNPFYPEVEPNFIS [L20P] | 1.99
20 | MFFKDRFYMRTNPFYPEVECNFIS [L20C] | 3.04
21 | MFFKDRFYMRTNPFYPEVETNFIS [L20T] | 1.85
22 | MFFKDRFYMRTNPFYPEVEENFIS [L20E] | 3.27
23 | MFFKDRFYMRTNPFYPEVEANFIS [L20A] | 2.27
24 | MFFKDRFYMRTNPFYPEVEVNFIS [L20V] | 2.11

Row | Variant | protein stability index
25 | MFFKDRFYMRTNPFYPEVEFNFIS [L20F] | 3.19
26 | MFFKDRFYMRTNQFYPEVELNFIS [P13Q] | 1.76
27 | MFFKDRFYMRTNAFYPEVELNFIS [P13A] | 2.38
28 | MFFKDRFYMRTNIFYPEVELNFIS [P13I] | 2.85
29 | MFFKDRFYMRTNNFYPEVELNFIS [P13N] | 2.29
30 | MFFKDRFYMRTNLFYPEVELNFIS [P13L] | 2.37
31 | MFFKDRFYMRTNHFYPEVELNFIS [P13H] | 2.46
32 | MFFKDRFYMRTNCFYPEVELNFIS [P13C] | 2.68
33 | MFFKDRFYMRTNDFYPEVELNFIS [P13D] | 3.62
34 | MFFKDRFYMRTNVFYPEVELNFIS [P13V] | 3.62
35 | MFFKDRFYMRTNKFYPEVELNFIS [P13K] | 2.58
36 | MFFKDRFYMRTNRFYPEVELNFIS [P13R] | 3.31
37 | MFFKDRFYMRTNMFYPEVELNFIS [P13M] | 2.66
38 | MFFKDRFYMRTNWFYPEVELNFIS [P13W] | 3.9
39 | MFFKDRFYMRTNGFYPEVELNFIS [P13G] | 2.62
40 | MFFKDRFYMRTNYFYPEVELNFIS [P13Y] | 2.35
41 | MFFKDRFYMRTNSFYPEVELNFIS [P13S] | 1.94
42 | MFFKDRFYMRTNPFYPEVLLNFIS [E19L] | 2.64
43 | MFFKDRFYMRTNPFYPEVQLNFIS [E19Q] | 2.3
44 | MFFKDRFYMRTNPFYPEVNLNFIS [E19N] | 3.6
45 | MFFKDRFYMRTNPFYPEVMLNFIS [E19M] | 1.47
46 | MFFKDRFYMRTNPFYPEVSLNFIS [E19S] | 2.61
47 | MFFKDRFYMRTNPFYPEVYLNFIS [E19Y] | 3.1
48 | MFFKDRFYMRTNPFYPEVKLNFIS [E19K] | 4.43

Row | Variant | protein stability index
49 | MFFKDRFYMRTNPFYPEVWLNFIS [E19W] | 1.3
50 | MFFKDRFYMRTNPFYPEVILNFIS [E19I] | 3.25
51 | MFFKDRFYMRTNPFYPEVCLNFIS [E19C] | 3.18
52 | MFFKDRFYMRTNPFYPEVTLNFIS [E19T] | 2.44
53 | MFFKDRFYMRTNPFYPEVHLNFIS [E19H] | 3.47
54 | MFFKDRFYMRTNPFYPEVALNFIS [E19A] | 3.48
55 | MFFKDRFYMRTNPFYPEVDLNFIS [E19D] | 2.34
56 | MFFKDRFYMRTNPFYPEVGLNFIS [E19G] | 3.69
57 | MFFKDRFYMRTNPFYPEVVLNFIS [E19V] | 2.27
58 | MFFKDRFYMRTNPFYPEVPLNFIS [E19P] | 3.53
59 | MFFKDRFYMRTNPFYPEVFLNFIS [E19F] | 3.27
60 | MFFKDRFYMRTNPFRPEVELNFIS [Y15R] | 2.66
61 | MFFKDRFYMRTNPFGPEVELNFIS [Y15G] | 2.09
62 | MFFKDRFYMRTNPFTPEVELNFIS [Y15T] | 2.43
63 | MFFKDRFYMRTNPFDPEVELNFIS [Y15D] | 3.35
64 | MFFKDRFYMRTNPFHPEVELNFIS [Y15H] | 2.19
65 | MFFKDRFYMRTNPFSPEVELNFIS [Y15S] | 2.69
66 | MFFKDRFYMRTNPFFPEVELNFIS [Y15F] | 2.63
67 | MFFKDRFYMRTNPFNPEVELNFIS [Y15N] | 2.94
68 | MFFKDRFYMRTNPFEPEVELNFIS [Y15E] | 2.15
69 | MFFKDRFYMRTNPFLPEVELNFIS [Y15L] | 3.33
70 | MFFKDRFYMRTNPFMPEVELNFIS [Y15M] | 1.97
71 | MFFKDRFYMRTNPFKPEVELNFIS [Y15K] | 2.72
72 | MFFKDRFYMRTNPFVPEVELNFIS [Y15V] | 2.37

Row | Variant | protein stability index
73 | MFFKDRFYMRTNPFIPEVELNFIS [Y15I] | 3.09
74 | MFFKDRFYMRTNPFWPEVELNFIS [Y15W] | 2.93
75 | MFFKDRFYMRTNPFPPEVELNFIS [Y15P] | 2.4
76 | MFFKDRFYMRTNPFCPEVELNFIS [Y15C] | 3.47
77 | MFFKDRFYMRTNPFQPEVELNFIS [Y15Q] | 1.34
78 | MFFKDRFYMRTNPFAPEVELNFIS [Y15A] | 1.72
79 | MFFKDRFYMRTNPQYPEVELNFIS [F14Q] | 2.58
80 | MFFKDRFYMRTNPIYPEVELNFIS [F14I] | 2.54
81 | MFFKDRFYMRTNPRYPEVELNFIS [F14R] | 3.1
82 | MFFKDRFYMRTNPYYPEVELNFIS [F14Y] | 2.96
83 | MFFKDRFYMRTNPNYPEVELNFIS [F14N] | 2.87
84 | MFFKDRFYMRTNPTYPEVELNFIS [F14T] | 2.33
85 | MFFKDRFYMRTNPGYPEVELNFIS [F14G] | 2.92
86 | MFFKDRFYMRTNPLYPEVELNFIS [F14L] | 2.62
87 | MFFKDRFYMRTNPDYPEVELNFIS [F14D] | 3.86
88 | MFFKDRFYMRTNPCYPEVELNFIS [F14C] | 2.65
89 | MFFKDRFYMRTNPAYPEVELNFIS [F14A] | 3.69
90 | MFFKDRFYMRTNPKYPEVELNFIS [F14K] | 3.31
91 | MFFKDRFYMRTNPEYPEVELNFIS [F14E] | 3.46
92 | MFFKDRFYMRTNPHYPEVELNFIS [F14H] | 2.82
93 | MFFKDRFYMRTNPMYPEVELNFIS [F14M] | 1.73
94 | MFFKDRFYMRTNPVYPEVELNFIS [F14V] | 3.62
